According to PMC2846751 (Biochemistry, 2010):

B1: His6-ParE toxin (ParE1) of Caulobacter crescentus (natural protein, UniProt Q9A9T8 1-96, looked up)
chain: MKPYRLSRRAKADLDDIWTYSEQRWGVEQAADYARELQATIEMIAEHPGMGQPDENLRAGYRRCASGSHVVFYRVGVRVEIIRVLHQSMNARAHLG
modifications: selenomethionine-labeled in the crystal and SAXS samples

Tests used:
[1] = molecular target: ParD antitoxin (ParD1) of Caulobacter crescentus (Caulobacter crescentus); experiment: SEC
crystal structure = molecular target: the molecule itself; experiment: crystal structure

| Molecule | stoichiometry N [1] | binding result (crystal structure) |
| --- | --- | --- |
| ParD antitoxin (ParD1) of Caulobacter crescentus (natural protein) | 2 |  |
| B1 |  | binds |
